Measured values reported in paper doi:10.1101/2024.02.27.582368 (bioRxiv, 2024).

Tests used:
[1] = biological target: BC1280 (CapP, CalY-assisting polymerization protein), full-length recombinant protein (Bacillus cereus ATCC14579) (UniProt Q81GC7); assay: native gel or EMSA
native gel or EMSA = biological target: the molecule itself; assay: native gel or EMSA

| stoichiometry N [1] [subunits] | Molecule | stoichiometry N (native gel or EMSA) [subunits] |
| --- | --- | --- |
| 15 | BC1280 (CapP, CalY-assisting polymerization protein), full-length recombinant protein (from UniProt Q81GC7 1-279) (natural protein) | – |
| – | N-domain39-190 of BC1280 (domain or fragment, Bacillus cereus ATCC14579, UniProt Q81GC7 39-190, looked up) AAFIHETKVEATLSTAIIFPKTVNTLKEQSEKHKQFIEREYGTMKGKLKATSIEEIKQAISVWQQGREKIVAEKEALQNVYTEIEAPYNQIQEELKVNKDESMQQVSIYVNEGFRSIKEKRDYIEKEISLKAIDEQIQALQQQLNVAIEAEG | ~15 |
